T1: APBA1_2, Q02410
T1 sequence (Q02410 742-832, limits assumed, looked up): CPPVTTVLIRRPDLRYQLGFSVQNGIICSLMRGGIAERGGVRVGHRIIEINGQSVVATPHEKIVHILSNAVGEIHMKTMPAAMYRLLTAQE

T2: CARD11, Q9BXL7
T2 sequence (Q9BXL7 662-765, limits assumed, looked up): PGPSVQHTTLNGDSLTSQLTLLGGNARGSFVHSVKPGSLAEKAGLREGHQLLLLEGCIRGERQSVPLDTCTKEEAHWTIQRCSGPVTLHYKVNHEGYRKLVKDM

T3: DFNB31_3, Q9P202
T3 sequence (Q9P202 811-907, limits assumed, looked up): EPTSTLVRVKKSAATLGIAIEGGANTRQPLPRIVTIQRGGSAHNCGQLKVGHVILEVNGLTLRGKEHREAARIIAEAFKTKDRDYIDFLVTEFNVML

T4: GRIP1_2, Q9Y3R0
T4 sequence (Q9Y3R0 145-248, limits assumed, looked up): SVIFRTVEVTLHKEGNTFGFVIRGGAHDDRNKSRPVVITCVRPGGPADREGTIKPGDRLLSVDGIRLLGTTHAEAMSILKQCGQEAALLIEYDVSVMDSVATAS

T5: GRIP1_3, Q9Y3R0
T5 sequence (Q9Y3R0 247-346, limits assumed, looked up): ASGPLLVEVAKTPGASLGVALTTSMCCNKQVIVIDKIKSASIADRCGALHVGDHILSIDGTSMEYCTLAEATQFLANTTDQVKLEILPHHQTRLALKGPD

T6: GRIP1_5, Q9Y3R0
T6 sequence (Q9Y3R0 568-668, limits assumed, looked up): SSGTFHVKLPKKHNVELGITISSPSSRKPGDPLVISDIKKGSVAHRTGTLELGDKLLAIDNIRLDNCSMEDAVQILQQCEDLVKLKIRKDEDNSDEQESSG

T7: LIN7C, Q9NUP9
T7 sequence (Q9NUP9 88-185, limits assumed, looked up): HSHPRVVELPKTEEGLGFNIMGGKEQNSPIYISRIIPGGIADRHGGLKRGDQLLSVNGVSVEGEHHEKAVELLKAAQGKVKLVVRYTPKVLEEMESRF

T8: MPP7, Q5T2T1
T8 sequence (Q5T2T1 134-230, limits assumed, looked up): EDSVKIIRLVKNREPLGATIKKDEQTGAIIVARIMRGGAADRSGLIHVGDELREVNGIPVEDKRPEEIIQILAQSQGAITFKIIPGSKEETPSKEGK

T9: SYNJ2BP, P57105
T9 sequence (P57105 8-110, limits assumed, looked up): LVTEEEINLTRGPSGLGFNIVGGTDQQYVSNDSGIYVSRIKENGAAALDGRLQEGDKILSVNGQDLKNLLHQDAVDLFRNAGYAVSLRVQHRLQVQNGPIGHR

T10: TJP3_3, O95049
T10 sequence (O95049 375-456, limits assumed, looked up): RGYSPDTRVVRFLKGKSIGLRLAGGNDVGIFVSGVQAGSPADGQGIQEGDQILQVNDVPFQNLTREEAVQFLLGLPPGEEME


The binders below were run against AHNAK1, Q09666 (assay: holdup assay). Details: plain residues with an end cap or a label only (N-terminal biotin on a linker: ado-ado).
Parameters: key: below the threshold = too weak to quantify, mostly under pKd 3.1 to 4

Chain of AHNAK1, Q09666 (Q09666 4-100): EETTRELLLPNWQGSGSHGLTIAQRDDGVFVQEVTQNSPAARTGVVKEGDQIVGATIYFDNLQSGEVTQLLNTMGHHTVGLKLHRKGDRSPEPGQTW

Binder | pKd
YYKRPVQEWV [MMP24, Q9Y5R2] | below the threshold
GNSVLKSTQF [SLC22A12, Q96S37] | below the threshold

The binders below were run against T1, APBA1_2, Q02410 (assay: holdup assay). Details: plain residues with an end cap or a label only (N-terminal biotin on a linker: ado-ado).
Parameters: key: below the threshold = too weak to quantify, mostly under pKd 3.1 to 4

Binder | pKd
YYKRPVQEWV [MMP24, Q9Y5R2] | 5.02
GNSVLKSTQF [SLC22A12, Q96S37] | below the threshold

What follows are binders tested against T2, CARD11, Q9BXL7 (assay: holdup assay). Details: plain residues with an end cap or a label only (N-terminal biotin on a linker: ado-ado).
Parameters: key: below the threshold = too weak to quantify, mostly under pKd 3.1 to 4

Binder | pKd
YYKRPVQEWV [MMP24, Q9Y5R2] | below the threshold
GNSVLKSTQF [SLC22A12, Q96S37] | below the threshold

The binders below were run against T3, DFNB31_3, Q9P202 (assay: holdup assay). Details: plain residues with an end cap or a label only (N-terminal biotin on a linker: ado-ado).
Parameters: key: below the threshold = too weak to quantify, mostly under pKd 3.1 to 4

Binder | pKd
YYKRPVQEWV [MMP24, Q9Y5R2] | 3.63
GNSVLKSTQF [SLC22A12, Q96S37] | 3.56

These binders were tested against DLG1_3, Q12959 (assay: holdup assay). Details: plain residues with an end cap or a label only (N-terminal biotin on a linker: ado-ado).
Parameters: key: below the threshold = too weak to quantify, mostly under pKd 3.1 to 4

Chain of DLG1_3, Q12959 (Q12959 457-571): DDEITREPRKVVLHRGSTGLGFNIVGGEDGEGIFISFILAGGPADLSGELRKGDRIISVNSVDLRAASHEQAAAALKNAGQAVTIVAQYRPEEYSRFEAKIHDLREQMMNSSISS

Binder | pKd
YYKRPVQEWV [MMP24, Q9Y5R2] | below the threshold
GNSVLKSTQF [SLC22A12, Q96S37] | below the threshold

Each binder was assayed against DLG4_3, P78352 (assay: holdup assay). Details: plain residues with an end cap or a label only (N-terminal biotin on a linker: ado-ado).
Parameters: key: below the threshold = too weak to quantify, mostly under pKd 3.1 to 4

Chain of DLG4_3, P78352 (P78352 306-403): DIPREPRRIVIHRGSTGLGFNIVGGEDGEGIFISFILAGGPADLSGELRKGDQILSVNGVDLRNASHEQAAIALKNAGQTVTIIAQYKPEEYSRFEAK

Binder | pKd
YYKRPVQEWV [MMP24, Q9Y5R2] | below the threshold
GNSVLKSTQF [SLC22A12, Q96S37] | below the threshold

What follows are binders tested against FRMPD3, Q5JV73 (assay: holdup assay). Details: plain residues with an end cap or a label only (N-terminal biotin on a linker: ado-ado).
Parameters: key: below the threshold = too weak to quantify, mostly under pKd 3.1 to 4

Chain of FRMPD3, Q5JV73 (Q5JV73 12-100): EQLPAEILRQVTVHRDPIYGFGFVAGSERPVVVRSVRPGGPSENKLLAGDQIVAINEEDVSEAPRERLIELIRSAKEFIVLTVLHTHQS

Binder | pKd
YYKRPVQEWV [MMP24, Q9Y5R2] | 3.55
GNSVLKSTQF [SLC22A12, Q96S37] | below the threshold

These binders were tested against GORASP2, Q9H8Y8 (assay: holdup assay). Details: plain residues with an end cap or a label only (N-terminal biotin on a linker: ado-ado).
Parameters: key: below the threshold = too weak to quantify, mostly under pKd 3.1 to 4

Binder | pKd
YYKRPVQEWV [MMP24, Q9Y5R2] | 5.44
GNSVLKSTQF [SLC22A12, Q96S37] | below the threshold

The binders below were run against GRID2IP_1, A4D2P6 (assay: holdup assay). Details: plain residues with an end cap or a label only (N-terminal biotin on a linker: ado-ado).
Parameters: key: below the threshold = too weak to quantify, mostly under pKd 3.1 to 4

Chain of GRID2IP_1, A4D2P6 (A4D2P6 1-87): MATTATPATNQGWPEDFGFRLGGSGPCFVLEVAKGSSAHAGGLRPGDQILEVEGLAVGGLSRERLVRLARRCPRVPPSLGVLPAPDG

Binder | pKd
YYKRPVQEWV [MMP24, Q9Y5R2] | below the threshold
GNSVLKSTQF [SLC22A12, Q96S37] | below the threshold

The binders below were run against T4, GRIP1_2, Q9Y3R0 (assay: holdup assay). Details: plain residues with an end cap or a label only (N-terminal biotin on a linker: ado-ado).
Parameters: key: below the threshold = too weak to quantify, mostly under pKd 3.1 to 4

Binder | pKd
YYKRPVQEWV [MMP24, Q9Y5R2] | below the threshold
GNSVLKSTQF [SLC22A12, Q96S37] | below the threshold

The binders below were run against T5, GRIP1_3, Q9Y3R0 (assay: holdup assay). Details: plain residues with an end cap or a label only (N-terminal biotin on a linker: ado-ado).
Parameters: key: below the threshold = too weak to quantify, mostly under pKd 3.1 to 4

Binder | pKd
YYKRPVQEWV [MMP24, Q9Y5R2] | below the threshold
GNSVLKSTQF [SLC22A12, Q96S37] | below the threshold

Each binder was assayed against T6, GRIP1_5, Q9Y3R0 (assay: holdup assay). Details: plain residues with an end cap or a label only (N-terminal biotin on a linker: ado-ado).
Parameters: key: below the threshold = too weak to quantify, mostly under pKd 3.1 to 4

Binder | pKd
YYKRPVQEWV [MMP24, Q9Y5R2] | below the threshold
GNSVLKSTQF [SLC22A12, Q96S37] | below the threshold

These binders were tested against GRIP2_3, Q9C0E4 (assay: holdup assay). Details: plain residues with an end cap or a label only (N-terminal biotin on a linker: ado-ado).
Parameters: key: below the threshold = too weak to quantify, mostly under pKd 3.1 to 4

Chain of GRIP2_3, Q9C0E4 (Q9C0E4 238-339): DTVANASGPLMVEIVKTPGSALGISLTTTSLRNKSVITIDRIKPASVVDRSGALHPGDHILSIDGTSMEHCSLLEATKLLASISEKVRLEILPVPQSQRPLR

Binder | pKd
YYKRPVQEWV [MMP24, Q9Y5R2] | 3.48
GNSVLKSTQF [SLC22A12, Q96S37] | below the threshold

The binders below were run against GRIP2_7, Q9C0E4 (assay: holdup assay). Details: plain residues with an end cap or a label only (N-terminal biotin on a linker: ado-ado).
Parameters: key: below the threshold = too weak to quantify, mostly under pKd 3.1 to 4

Chain of GRIP2_7, Q9C0E4 (Q9C0E4 934-1023): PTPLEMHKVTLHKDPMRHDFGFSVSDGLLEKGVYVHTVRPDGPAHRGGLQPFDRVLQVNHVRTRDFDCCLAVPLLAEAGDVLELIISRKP

Binder | pKd
YYKRPVQEWV [MMP24, Q9Y5R2] | 4.32
GNSVLKSTQF [SLC22A12, Q96S37] | below the threshold

These binders were tested against HTRA2, O43464 (assay: holdup assay). Details: plain residues with an end cap or a label only (N-terminal biotin on a linker: ado-ado).
Parameters: key: below the threshold = too weak to quantify, mostly under pKd 3.1 to 4

Chain of HTRA2, O43464 (O43464 355-458): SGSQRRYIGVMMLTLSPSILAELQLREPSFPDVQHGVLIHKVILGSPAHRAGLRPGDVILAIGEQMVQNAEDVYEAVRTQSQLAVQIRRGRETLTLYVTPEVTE

Binder | pKd
YYKRPVQEWV [MMP24, Q9Y5R2] | 4.4
GNSVLKSTQF [SLC22A12, Q96S37] | below the threshold

The binders below were run against LAP2, Q96RT1 (assay: holdup assay). Details: plain residues with an end cap or a label only (N-terminal biotin on a linker: ado-ado).
Parameters: key: below the threshold = too weak to quantify, mostly under pKd 3.1 to 4

Chain of LAP2, Q96RT1 (Q96RT1 other isoform, or with tags, fused parts or gaps): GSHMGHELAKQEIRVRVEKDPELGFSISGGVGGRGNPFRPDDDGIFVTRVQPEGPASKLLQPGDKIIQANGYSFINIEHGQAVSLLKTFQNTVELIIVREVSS

Binder | pKd
YYKRPVQEWV [MMP24, Q9Y5R2] | 4.51
GNSVLKSTQF [SLC22A12, Q96S37] | below the threshold

The binders below were run against T7, LIN7C, Q9NUP9 (assay: holdup assay). Details: plain residues with an end cap or a label only (N-terminal biotin on a linker: ado-ado).
Parameters: key: below the threshold = too weak to quantify, mostly under pKd 3.1 to 4

Binder | pKd
YYKRPVQEWV [MMP24, Q9Y5R2] | below the threshold
GNSVLKSTQF [SLC22A12, Q96S37] | 4.12

What follows are binders tested against MAGI2_2, Q86UL8 (assay: holdup assay). Details: plain residues with an end cap or a label only (N-terminal biotin on a linker: ado-ado).
Parameters: key: below the threshold = too weak to quantify, mostly under pKd 3.1 to 4

Chain of MAGI2_2, Q86UL8 (Q86UL8 410-522): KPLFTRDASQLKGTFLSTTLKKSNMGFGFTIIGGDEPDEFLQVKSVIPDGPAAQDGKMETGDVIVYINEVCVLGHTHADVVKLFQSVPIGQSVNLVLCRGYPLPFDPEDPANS

Binder | pKd
YYKRPVQEWV [MMP24, Q9Y5R2] | below the threshold
GNSVLKSTQF [SLC22A12, Q96S37] | below the threshold

The binders below were run against MAGI2_4, Q86UL8 (assay: holdup assay). Details: plain residues with an end cap or a label only (N-terminal biotin on a linker: ado-ado).
Parameters: key: below the threshold = too weak to quantify, mostly under pKd 3.1 to 4

Chain of MAGI2_4, Q86UL8 (Q86UL8 772-865): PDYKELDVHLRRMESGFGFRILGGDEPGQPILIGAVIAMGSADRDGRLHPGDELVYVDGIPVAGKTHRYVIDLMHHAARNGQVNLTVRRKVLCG

Binder | pKd
YYKRPVQEWV [MMP24, Q9Y5R2] | 4.09
GNSVLKSTQF [SLC22A12, Q96S37] | 3.79

What follows are binders tested against T8, MPP7, Q5T2T1 (assay: holdup assay). Details: plain residues with an end cap or a label only (N-terminal biotin on a linker: ado-ado).
Parameters: key: below the threshold = too weak to quantify, mostly under pKd 3.1 to 4

Binder | pKd
YYKRPVQEWV [MMP24, Q9Y5R2] | below the threshold
GNSVLKSTQF [SLC22A12, Q96S37] | below the threshold

Each binder was assayed against PDZRN4_1, Q6ZMN7 (assay: holdup assay). Details: plain residues with an end cap or a label only (N-terminal biotin on a linker: ado-ado).
Parameters: key: below the threshold = too weak to quantify, mostly under pKd 3.1 to 4

Chain of PDZRN4_1, Q6ZMN7 (Q6ZMN7 213-318): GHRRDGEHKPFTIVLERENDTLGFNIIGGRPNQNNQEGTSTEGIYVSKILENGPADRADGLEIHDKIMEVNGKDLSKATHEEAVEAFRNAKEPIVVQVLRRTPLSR

Binder | pKd
YYKRPVQEWV [MMP24, Q9Y5R2] | below the threshold
GNSVLKSTQF [SLC22A12, Q96S37] | below the threshold

The binders below were run against SCRIB_1, Q14160 (assay: holdup assay). Details: plain residues with an end cap or a label only (N-terminal biotin on a linker: ado-ado).
Parameters: key: below the threshold = too weak to quantify, mostly under pKd 3.1 to 4

Chain of SCRIB_1, Q14160 (Q14160 718-814): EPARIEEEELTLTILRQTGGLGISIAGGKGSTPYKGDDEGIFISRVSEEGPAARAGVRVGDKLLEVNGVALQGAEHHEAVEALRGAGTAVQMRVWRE

Binder | pKd
YYKRPVQEWV [MMP24, Q9Y5R2] | below the threshold
GNSVLKSTQF [SLC22A12, Q96S37] | below the threshold

The binders below were run against SCRIB_2, Q14160 (assay: holdup assay). Details: plain residues with an end cap or a label only (N-terminal biotin on a linker: ado-ado).
Parameters: key: below the threshold = too weak to quantify, mostly under pKd 3.1 to 4

Chain of SCRIB_2, Q14160 (Q14160 857-960): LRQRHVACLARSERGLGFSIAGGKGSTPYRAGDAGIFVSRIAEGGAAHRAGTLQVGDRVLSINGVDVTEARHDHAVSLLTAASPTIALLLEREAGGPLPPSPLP

Binder | pKd
YYKRPVQEWV [MMP24, Q9Y5R2] | below the threshold
GNSVLKSTQF [SLC22A12, Q96S37] | below the threshold

Each binder was assayed against SNX27, Q96L92 (assay: holdup assay). Details: plain residues with an end cap or a label only (N-terminal biotin on a linker: ado-ado).
Parameters: key: below the threshold = too weak to quantify, mostly under pKd 3.1 to 4

Binder | pKd
YYKRPVQEWV [MMP24, Q9Y5R2] | 4.2
GNSVLKSTQF [SLC22A12, Q96S37] | 4.95

The binders below were run against T9, SYNJ2BP, P57105 (assay: holdup assay). Details: plain residues with an end cap or a label only (N-terminal biotin on a linker: ado-ado).
Parameters: key: below the threshold = too weak to quantify, mostly under pKd 3.1 to 4

Binder | pKd
YYKRPVQEWV [MMP24, Q9Y5R2] | 3.91
GNSVLKSTQF [SLC22A12, Q96S37] | below the threshold

Each binder was assayed against TJP2_1, Q9UDY2 (assay: holdup assay). Details: plain residues with an end cap or a label only (N-terminal biotin on a linker: ado-ado).
Parameters: key: below the threshold = too weak to quantify, mostly under pKd 3.1 to 4

Chain of TJP2_1, Q9UDY2 (Q9UDY2 24-128): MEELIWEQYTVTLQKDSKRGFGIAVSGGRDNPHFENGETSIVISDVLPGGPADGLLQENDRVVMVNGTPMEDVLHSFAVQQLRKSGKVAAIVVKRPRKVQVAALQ

Binder | pKd
YYKRPVQEWV [MMP24, Q9Y5R2] | 6.12
GNSVLKSTQF [SLC22A12, Q96S37] | below the threshold

The binders below were run against T10, TJP3_3, O95049 (assay: holdup assay). Details: plain residues with an end cap or a label only (N-terminal biotin on a linker: ado-ado).
Parameters: key: below the threshold = too weak to quantify, mostly under pKd 3.1 to 4

Binder | pKd
YYKRPVQEWV [MMP24, Q9Y5R2] | 5
GNSVLKSTQF [SLC22A12, Q96S37] | below the threshold
